Source: publication PMC5957528, “Boosting ATM activity alleviates aging and extends lifespan in a mouse model of progeria” (eLife, 2018)
Blank lines part the entries; values can stand above or below the molecule they belong to.

Tests used:
SIRT6 = SIRT6 (UniProt Q8N6T7); test: anti-HA co-IP, ATM immunoblot; conditions: reference: Flag-ATM wild type; sites S1981
MDM2 = MDM2 (UniProt Q00987); test: anti-Flag co-IP, MDM2 immunoblot; conditions: reference: Flag-SIRT6 wild type; sites S112
His-SIRT6 = molecular target: T1, His-SIRT6 (human, UniProt Q8N6T7 1-355); test: pull-down; GST pull-down: bacterially expressed 6 × His SIRT6 incubated separately with GST-ATM fragments in 150 mM NaCl, 20 mM Tris-HCl pH 7.5, 5 mM MgCl2, 0.2 mM EDTA, 10% glycerol, 0.2% NP-40; Glutathione Sepharose; washed with TEN buffer (300 mM NaCl); conditions: both partners purified
T1 construct: SIRT6, human; also called 6 × His tagged SIRT6; purified His-SIRT6; source: bacterially expressed, purified
T1 sequence (Q8N6T7 whole entry, the tested form may be a part): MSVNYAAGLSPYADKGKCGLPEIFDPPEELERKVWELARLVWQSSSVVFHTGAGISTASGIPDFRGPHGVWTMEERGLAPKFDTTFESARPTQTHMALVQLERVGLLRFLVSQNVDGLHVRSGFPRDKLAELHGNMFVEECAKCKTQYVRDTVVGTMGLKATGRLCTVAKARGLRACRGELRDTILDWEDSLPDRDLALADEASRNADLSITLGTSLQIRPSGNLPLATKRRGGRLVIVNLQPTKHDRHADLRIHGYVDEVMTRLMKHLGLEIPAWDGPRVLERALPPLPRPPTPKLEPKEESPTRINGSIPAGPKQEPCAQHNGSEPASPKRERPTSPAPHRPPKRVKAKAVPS

binding against the reference (SIRT6): lost
Molecule: ATM (from UniProt Q13315) Flag-ATM S1981A

binding against the reference (MDM2): stronger
Molecule: SIRT6 (from UniProt Q8N6T7) Flag-SIRT6 S112A

binding result (His-SIRT6): binds
B1: GST-ATM-4 (residues 770–1102) (domain or fragment, human, UniProt Q13315 770-1102, looked up)
chain: EFRIGSLRNMMQLCTRCLSNCTKKSPNKIASGFFLRLLTSKLMNDIADICKSLASFIKKPFDRGEVESMEDDTNGNLMEVEDQSSMNLFNDYPDSSVSDANEPGESQSTIGAINPLAEEYLSKQDLLFLDMLKFLCLCVTTAQTNTVSFRAADIRRKLLMLIDSSTLEPTKSLHLHMYLMLLKELPGEEYPLPMEDVLELLKPLSNVCSLYRRDQDVCKTILNHVLHVVKNLGQSNMDSENTRDAQGQFLTVIGAFWHLTKERKYIFSVRMALVNCLKTLLEADPYSKWAILNVMGKDFPVNEVFTQFLADNHHQVRMLAAESINRLFQDTKG
notes: source: recombinant GST fusion (pGEX4T-3 vector)
